Test results reported in patent US20040126379A1.

Molecular target: human CD44v6 on antigen-positive FaDu cells (human) (UniProt P16070)
Assay: flow cytometry (FACS) on antigen-positive FaDu cells, on ice 1 h, FITC-labeled anti-human IgG detection

| Kd | Molecule |
| --- | --- |
| 1.8 nM | BIWI 1 (from UniProt P0DOX5 2-449) |
| 1 nM | BIWA 4 (antibody, human IgG1, kappa, V domains shown) VH: EVQLVESGGGLVKPGGSLRLSCAASGFTFSSYDMSWVRQAPGKGLEWVSTISSGGSYTYYLDSIKGRFTISRDNAKNSLYLQMNSLRAEDTAVYYCARQGLDYWGRGTLVTVSS VL: EIVLTQSPATLSLSPGERATLSCSASSSINYIYWYQQKPGQAPRLLIYLTSNLASGVPARFSGSGSGTDFTLTISSLEPEDFAVYYCLQWSSNPLTFGGGTKVEIKR |
